The source of these data is US20240067740A1 (NOVAROCK BIOTHERAPEUTICS, published 2024).

Where a chain is given by its changes, count along the chain named.

To fix the notation:
T1: human TNFR2 (Homo sapiens, UniProt P20333 23-461)
T1 construct: also called hTNFR2; TNFRSF1B
T1 sequence: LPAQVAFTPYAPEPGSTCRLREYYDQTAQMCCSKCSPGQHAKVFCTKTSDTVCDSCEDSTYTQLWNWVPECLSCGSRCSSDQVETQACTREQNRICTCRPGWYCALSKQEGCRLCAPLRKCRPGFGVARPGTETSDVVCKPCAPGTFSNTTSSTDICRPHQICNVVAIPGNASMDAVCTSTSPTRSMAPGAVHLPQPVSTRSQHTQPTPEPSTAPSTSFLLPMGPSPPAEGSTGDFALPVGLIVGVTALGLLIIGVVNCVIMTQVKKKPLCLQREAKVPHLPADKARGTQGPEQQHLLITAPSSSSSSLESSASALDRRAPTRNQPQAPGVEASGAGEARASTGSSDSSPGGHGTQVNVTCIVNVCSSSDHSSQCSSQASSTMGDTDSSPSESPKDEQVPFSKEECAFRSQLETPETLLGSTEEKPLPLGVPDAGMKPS

T2: murine TNFR2 (Mus musculus, UniProt P25119 23-474)
T2 construct: Stably overexpressed on HEK293T cells; also called mouse TNFR2
T2 sequence: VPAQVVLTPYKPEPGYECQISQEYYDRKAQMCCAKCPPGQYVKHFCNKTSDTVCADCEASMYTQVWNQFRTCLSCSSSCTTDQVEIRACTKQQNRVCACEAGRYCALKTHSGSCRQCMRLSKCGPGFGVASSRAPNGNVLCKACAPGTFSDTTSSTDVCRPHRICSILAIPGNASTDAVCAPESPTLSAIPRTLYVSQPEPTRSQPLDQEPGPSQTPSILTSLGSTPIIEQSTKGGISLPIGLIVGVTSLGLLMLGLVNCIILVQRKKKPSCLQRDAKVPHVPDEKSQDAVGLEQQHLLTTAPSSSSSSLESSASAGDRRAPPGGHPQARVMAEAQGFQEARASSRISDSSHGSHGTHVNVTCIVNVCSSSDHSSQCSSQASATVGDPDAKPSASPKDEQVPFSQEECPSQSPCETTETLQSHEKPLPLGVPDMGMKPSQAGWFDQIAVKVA

T3: human TNFR1 (Homo sapiens, UniProt P19438 30-455)
T3 construct: Stably overexpressed on CHO-K1 cells; also called TNFRSF1A; p55
T3 sequence: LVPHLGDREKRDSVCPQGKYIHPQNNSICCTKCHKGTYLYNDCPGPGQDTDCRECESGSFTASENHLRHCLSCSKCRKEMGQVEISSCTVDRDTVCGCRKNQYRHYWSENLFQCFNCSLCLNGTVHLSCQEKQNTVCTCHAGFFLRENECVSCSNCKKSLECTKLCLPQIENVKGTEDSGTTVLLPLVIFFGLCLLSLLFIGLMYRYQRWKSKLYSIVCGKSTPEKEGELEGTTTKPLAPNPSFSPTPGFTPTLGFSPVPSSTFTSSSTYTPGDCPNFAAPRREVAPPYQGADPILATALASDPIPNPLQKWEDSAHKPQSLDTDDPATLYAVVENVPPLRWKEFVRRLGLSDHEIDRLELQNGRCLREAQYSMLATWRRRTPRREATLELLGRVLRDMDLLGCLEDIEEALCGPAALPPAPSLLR

T4: cynomolgus TNFR2 (Macaca fascicularis, UniProt P20333 23-461 (human entry))
T4 construct: Stably overexpressed on HEK293T cells; also called cynoTNFR2
T4 chain: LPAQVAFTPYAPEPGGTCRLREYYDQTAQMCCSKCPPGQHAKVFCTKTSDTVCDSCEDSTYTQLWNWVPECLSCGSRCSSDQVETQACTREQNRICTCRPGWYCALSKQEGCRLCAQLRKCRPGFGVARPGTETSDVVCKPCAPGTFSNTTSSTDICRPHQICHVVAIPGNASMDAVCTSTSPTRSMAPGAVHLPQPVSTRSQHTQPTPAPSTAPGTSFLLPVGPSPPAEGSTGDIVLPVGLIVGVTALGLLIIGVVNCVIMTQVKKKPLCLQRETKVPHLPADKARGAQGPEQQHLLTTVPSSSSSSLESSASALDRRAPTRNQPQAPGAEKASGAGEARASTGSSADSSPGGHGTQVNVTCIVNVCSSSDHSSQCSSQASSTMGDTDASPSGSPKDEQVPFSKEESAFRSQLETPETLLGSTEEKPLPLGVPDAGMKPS

B1: R2_mAb-5 (antibody, V domains shown)
VH: QVQLVQSGAEVKKPGASVTVSCKASGYTFSTYGIIWVRQAPGQGLEWMGWISAFNGNANSAQKLQDRVTMTTDTSTSTAYMELRSLRSDDTAVYYCARGEDFFDYWGQGTLVTVSS
VL: DIVMTQTPLSSPVTLGQPASISCRSSQSLVHSDGNTYLSWLQQRPGQPPRLLIYKVSSRFSGVPDRFSGSGAGTDFTLKISRVEAEDVGVYYCTQSTQFPFTFGRGTKLEIK
notes: also called R2-5
B2: R2_mAb-4 (antibody, V domains shown)
VH: QVQLVQSGAEVRKPGASVKVSCKASGYTFTSYSVTWVRQAPGQGLEWMGWINAFSGNTHYAQNLQDRVTMTTDTSTSTAYMELRSLRSDDTAVYYCAREEGSGSYEDYYGMDVWGQGTTVTVSS
VL: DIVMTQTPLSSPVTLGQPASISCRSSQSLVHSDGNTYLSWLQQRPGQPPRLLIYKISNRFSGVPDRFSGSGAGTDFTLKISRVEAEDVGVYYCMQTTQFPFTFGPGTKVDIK
notes: also called R2-4
B3: R2_mAb-1 (antibody, V domains shown)
VH: QVQLVESGGGVVQPGRSLRLSCAASGFTFSSYGMHWVRQAPGKGLEWVAVIWFDEDNKDYADSVKGRFTISRDNSKNTLYLQMSSLRAEDTAVYYCARDNDILTGYYYYYGMDVWGQGTTVTVSS
VL: DIQLTQSPSFLSASVGDRVTITCRASQDISSYLAWYQQKPGKAPKLLIYAASTLQSGVPSRFSGSGSGTEFTLTISSLQPEDFATYYCQQLNSYPPTFGQGTKVEIK
notes: also called R2-1
B4: R2_mAb-6 (antibody, V domains shown)
VH: QVQLVQSGAEVKKPGASVKVSCKASGYTFLSYGLSWVRQAPGQGLEWMGWINAYNGNTNYAQNLQDRVTMTTDTSTSTAYMELRSLRSDDMAVYYCARWDILTAYYSSDAFDIWGQGTMVTVSS
VL: B1 VL with S39N, S58N, S96T, F101I, R105Q, K108R
notes: also called R2-6
B5: R2_mAb-2 (antibody, V domains shown)
VH: QVQLVQSGPEVKKPGASVKVSCKASGYTFTNYGISWVRQAPGQGLEWMGWINAYNGNTNYAQKLQGRVTMTTDTSTSTAYMELRSLRSDDTAVYYCARDGGYGSGTYHNDYYYYYGMDVWGQGTTVTVSS
VL: EIVLTQSPDFQSMTPEEKVTITCRASQSIGSNLHWYQQKPDQSPKLLIKFASQSISGVPSRFSGSGSGTDFTLTINSLEAEDAATYYCHQSSSLPFTFGPGTKVDIK
notes: also called R2-2
B6: R2_mAb-3 (antibody, V domains shown)
VH: QVQLQESGPGLVKPSETLSLTCTVSGGSISSYYWSWIRQAPGKGLEWIGYIYYSGSTNYNPSLKSRVTISVDTSKNQFSLKLSSVTAADTAVYYCARDDGSSDYGMDVWGQGTTVTVSS
VL: AIQLTQSPSSLSASVGDRVTITCRASQGISSALAWYQQKPGKAPKLLIYDASSLESGVPSRFTGSGTDFTLTISSLQPEDFATYYCQQFNNYMYTFGQGTKLEIK
notes: also called R2-3

In the first experiment the target is T1, human TNFR2. Kind of experiment: image binding assay on adherent HEK293T cells overexpressing human TNFR2 (384-well plate).
Protocol: (§1) HEK293T cells stably overexpressing human TNFR2 or CHO-K1 stably overexpressing human TNFR1 were aliquoted in FACS buffer and incubated with serial dilutions of TNFR2 antibody. […] Following an incubation, the reactions were subsequently analyzed by flow cytometry. […] The concentration-response was fitted to a four-parameter logistic non-linear regression model in the GraphPad Prism software to obtain the EC₅₀ values.
What is called EC50 (read off the curve) is the concentration that produces a half-maximal response. A higher EC50 (read off the curve) goes with a need for much substance. Regarding B1, the “EC50 (read off the curve)” value is roughly 0.1 nM.

As for B2, the “EC50 (read off the curve)” value is roughly 0.2 nM.

In another experiment the target is T1, human TNFR2. Nature of the experiment: flow cytometry on HEK293T cells stably overexpressing human TNFR2, Alexa Fluor 647 secondary antibody. (In general: A flow cytometer gives signals particle by particle.)
Protocol: as §1
On to B3, for which the “EC50 (read off the curve)” value was roughly 0.1 nM.

As to B1, the “EC50 (read off the curve)” value is roughly 0.1 nM.

B4: the “EC50 (read off the curve)” value was roughly 0.1 nM.

As for B5, the “EC50 (read off the curve)” value was roughly 0.3 nM.

Turning to B6, the “EC50 (read off the curve)” value was roughly 0.4 nM.

On to B2, for which the “EC50 (read off the curve)” value was roughly 0.1 nM.

A further experiment addresses T2, murine TNFR2. Kind of experiment: flow cytometry on HEK293T cells stably overexpressing murine TNFR2.
Protocol: (§2) HEK293T cells stably overexpressing human TNFR2, cynomolgus TNFR2, or murine TNFR2 were aliquoted in FACS buffer and incubated with serial dilutions of TNFR2 antibody for 2 hours.
(§3) The concentration-response was fitted to a four-parameter logistic non-linear regression model in the GraphPad Prism software to obtain the EC₅₀ values.
In the case of B3, the binding result is listed as “no binding (tested: up to 10 (unit cut off in the text))”.

For the molecule B1, the binding result was “no binding (tested: up to 10 (unit cut off in the text))”.

Turning to B4, the binding result is listed as “no binding (tested: up to 10 (unit cut off in the text))”.

For B5, the binding result was “no binding (tested: up to 10 (unit cut off in the text))”.

Consider B6, for which the binding result was “no binding (tested: up to 10 (unit cut off in the text))”.

Consider B2, for which the binding result is “no binding (tested: up to 10 (unit cut off in the text))”.

The next experiment concerns the target T3, human TNFR1. Kind of experiment: flow cytometry on CHO-K1 cells stably overexpressing human TNFR1.
Protocol: as §1
For the molecule B3, the binding result was “no binding (tested: up to 10 µg/mL)”.

Take B1: the binding result is listed as “no binding (tested: up to 10 µg/mL)”.

Turning to B4, the binding result is recorded as “no binding (tested: up to 10 µg/mL)”.

Take B5: the binding result was “no binding (tested: up to 10 µg/mL)”.

In the case of B6, the binding result is reported as “no binding (tested: up to 10 µg/mL)”.

Take B2: the binding result is “no binding (tested: up to 10 µg/mL)”.

The target of the next experiment is T4, cynomolgus TNFR2. Nature of the experiment: flow cytometry on HEK293T cells stably overexpressing cynomolgus TNFR2.
Protocol: as §2, §3
Turning to B3, the binding result is “binds”.

B1: the binding result is recorded as “binds”.

Take B4: the binding result is “binds”.

On to B5, for which the binding result is recorded as “binds”.

B2: the binding result is reported as “binds”.

A further experiment concerns the target T1, human TNFR2. Nature of the experiment: binding to cells stably overexpressing human TNFR2, serial dilutions, flow cytometry or imaging.
Protocol: as §1
A word on the EC50: it is the concentration at which the effect is half-maximal. For the molecule B3, the EC50 came out at 0.1 nM.

As for B1, the EC50 amounted to 0.1 nM.

In turn, B4 gave an EC50 of 0.14 nM.

In turn, B5 gave an EC50 of 0.35 nM.

B6 yielded a concentration for a half-maximal effect (EC50) of 0.38 nM.

Consider B2, for which the EC50 was determined as 0.11 nM.
